In patent US20200140562A1 (Innovent, published 2020):
Read-outs that look alike come from different tables or passages of the source.

Assays:
[1] = biological target: T1, human OX40 on cells (CHO-hOX40, 293HEK-hOX40, Jurkat-hOX40, activated primary CD4+ T cells) (human, UniProt P43489 29-277); assay: flow cytometry, CHO-hOX40, 0.024414063 nM
T1 construct: whole, on cells; The cell type is told in each assay; also called CHO-OX40
T1 sequence (looked up): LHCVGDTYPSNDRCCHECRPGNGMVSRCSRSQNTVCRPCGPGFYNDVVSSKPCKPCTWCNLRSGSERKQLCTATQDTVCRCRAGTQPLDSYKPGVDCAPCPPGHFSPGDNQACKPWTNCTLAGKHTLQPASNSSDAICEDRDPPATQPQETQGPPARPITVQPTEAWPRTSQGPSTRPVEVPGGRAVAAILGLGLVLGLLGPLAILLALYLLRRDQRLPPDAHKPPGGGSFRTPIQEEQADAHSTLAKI

[2] = biological target: T1, human OX40 on cells (CHO-hOX40, …); assay: cell-based or functional assay
[3] = biological target: T1, human OX40 on cells (CHO-hOX40, …); assay: flow cytometry, CHO-hOX40, 100 nM blocker, competitor OX40L-hFc-fluorescein
[4] = biological target: T1, human OX40 on cells (CHO-hOX40, …); assay: flow cytometry, CHO-hOX40, 100 nM
[5] = biological target: T1, human OX40 on cells (CHO-hOX40, …); assay: flow cytometry, CHO-hOX40, 25 nM
[6] = biological target: T1, human OX40 on cells (CHO-hOX40, …); assay: flow cytometry, CHO-hOX40, 1.5625 nM
[7] = biological target: T1, human OX40 on cells (CHO-hOX40, …); assay: flow cytometry, CHO-hOX40
[8] = biological target: T1, human OX40 on cells (CHO-hOX40, …); assay: flow cytometry, CHO-hOX40; remark: listed apart in the source
[9] = biological target: T1, human OX40 on cells (CHO-hOX40, …); assay: flow cytometry, CHO-hOX40, 3.125 nM
[10] = biological target: T1, human OX40 on cells (CHO-hOX40, …); assay: flow cytometry, CHO-hOX40, 0.048828125 nM
[11] = biological target: T1, human OX40 on cells (CHO-hOX40, …); assay: flow cytometry competition on CHO cells expressing human OX40; blocked ligand OX40L-mFc (60 ug/ml), detected with anti-murine Fc-FITC
[12] = biological target: T1, human OX40 on cells (CHO-hOX40, …); assay: flow cytometry, CHO-hOX40, 0.048828125 nM; remark: listed apart in the source
[13] = biological target: T1, human OX40 on cells (CHO-hOX40, …); assay: flow cytometry, CHO-hOX40, 0.78125 nM

MFI [1]: 7970 MFI
NFkB-Luc fold change in Jurkat stimulated by PHA+ anti-CD28 [2]: 4.82 fold over IgG4 control
NFkB-Luc fold change in Jurkat stimulated by anti-CD3+ anti-CD28 [2]: 4.05 fold over IgG4 control
MFI of OX40L signal on CHO-OX40 cells [3]: 19300 MFI
MFI [4]: 2.57e+06 MFI
MFI [5]: 2.8e+06 MFI
MFI [6]: 554000 MFI
EC50 [7]: 5.33 nM
EC50 [8]: 12.4 nM
MFI [9]: 932000 MFI
MFI [10]: 8350 MFI
IC50 (read off the curve) [11]: ~20 nM
MFI [12]: 34000 MFI
MFI [13]: 317000 MFI
B1: OX40L (control reagent; recombinant OX40L, Acro Biosystems) (ligand, UniProt P23510 51-183, looked up)
chain: QVSHRYPRIQSIKVQFTEYKKEKGFILTSQKEDEIMKVQNNSVIINCDGFYLISLKGYFSQEVNISLHYQKDEEPLFQLKKVRSVNSLMVASLTYKDKVYLNVTTDNTSLDDFHVNGGELILIHQNPGEFCVL
notes: may be the same reagent as OX40L-hFc
